Experimental data published in patent US10400009B2, “β-sheet breaker peptide used for preventing and/or treating alzheimer's disease” (TIANJIN MEDICAL UNIVERSITY, priority 2014, dated 2019).
Ends that are not written are not given here.

Assays:
[1] = biological target: T1, Aβ1-42 (Homo sapiens, UniProt P05067); assay: ThT fluorescence spectrophotometry of Aβ1-42 aggregation; assay type: biochemical; conditions: Aβ1-42 11.07 μmol/L, peptide 44.3 μmol/L, 37° C., 24 h, PBS pH 7.4; x ± S
T1 construct: purchased Sigma, Inc. (US)
Experimental: 1.2 the Inhibition Effect of HPYD on Aβ Aggregation was Analyzed by ThT Fluorescence Spectrophotometry.
The degree of Aβ aggregation may be reflected by ThT fluorescence intensity. Aβ1-42 lyophilized powder was formulated in 50 mmol/L PBS phosphate buffer (pH 7.4) to obtain a solution in a concentration of 22.15 μmol/L. The polypeptides H102 and HPYD were also formulated in 50 mmol/L PBS phosphate buffer (pH 7.4) to obtain a solution in a concentration of 88.60 μmol/L. In the experiment, Aβ1-42 was mixed with H102 or HPYD in 1:1 volume ratio to a final concentration of 11.07 μmol/L and 44.3 μmol/L, respectively. […] ThT fluorescence intensity was measured by using VARIAN PTC-Au00-01058 fluorescence spectrophotometer at the excitation wavelength of 453 nm and emission wavelength of 478-486 nm. […]
The fluorescence intensity from the aging group (in which Aβ1-42 lyophilized powder was formulated in 50 mmol/L PBS phosphate buffer (pH 7.4) to obtain a solution in a concentration of 11.07 μmol/L, and the obtained solution was incubated at 37° C. for 24 hours) from which baseline fluorescence intensity was subtracted would be taken as 100%, and the inhibitory rate of the drug on Aβ1-42 in each group was calculated. […]
Inhibitory rate=(the relative fluorescence intensity of 1-β sheet blocking peptide/the relative fluorescence intensity of Aβ1-42)×100%

[2] = biological target: T1, Aβ1-42; assay: FT-IR spectrometry of Aβ1-42 secondary structure (β-sheet); assay type: biochemical; conditions: co-incubation with Aβ1-42 at 37° C. for 72 h
Experimental: 1.3 the Inhibition Effect of HPYD on Aβ1-42 Aggregation was Observed by FT-IR Spectrometry.
22.15 μmol/L Aβ1-42 solution in PBS phosphate buffer was formulated in quadruplicate as described in the above 1.2 section. To two solutions, PBS phosphate buffer was added in equal volume respectively and incubated alone at 37° C. for 30 min (30 min, aging group) and 72 h (72 h, aging group). To the other two solutions, H102 (88.60 μmol/L) and HPYD (88.60 μmol/L) were added in equal volume respectively and co-incubated at 37° C. for 72 h. After incubation, each sample was vacuum lyophilized. Then, 3.5 μg of H102 and 3.7 μg of HPYD were respectively mixed with anhydrous potassium bromide (120-180 mg) thoroughly, and pressurized for 5 min by tablet machine to form potassium bromide tablet. The measurement and analysis were carried out by using Nicolet Magna 760 FT-IR instrument, with a resolution of 4 cm^−1 and a spectrum range of 3500-400 cm^−1. The amide I band spectrum at 1700-1600 cm^−1 was analyzed using Origin 8.0 software. The fitting range was expanded to 1750-1550 cm^−1 due to the complexity of the components in the samples and the effect of vibration peaks close to amide I band on the secondary structure.
In the above-mentioned studies, Aβ1-42 was used as negative control, and H102 was used as positive control.

[3] = biological target: T2, Aβ (Homo sapiens, UniProt P05067); conditions: from Chinese patent CN 101531703A; cited from earlier work
[4] = biological target: T1, Aβ1-42; assay: Electron microscopy of Aβ1-42 fiber formation; assay type: biochemical; conditions: for Aβ fibers observed by electron microscope: co-incubation with Aβ1-42 for 5 days at 37° C.
Experimental: 1.4 the Inhibition Effect of HPYD on Aβ Aggregation was Observed by Using Electron Microscope. Aβ1-42 solution in PBS phosphate buffer (11.07 μmol/L, 20 μl) was formulated as described in the above 1.2 section, and incubated alone at 37° C. for 5 days. Meanwhile, Aβ1-42 (22.15 μmol/L, 10 μl) was respectively co-incubated with […] or HPYD (88.61 μmol/L, 10 μl) under the same conditions for 5 days. 5 μl sample was taken from each group and dropped on the carbon support film on 300-mesh deionized copper grids, and then kept still at ambient temperature for 15 min. The samples were negatively stained in dark with 2% uranyl acetate for 2 min. After drying, the samples were observed using transmission electron microscope. In the above-mentioned studies, Aβ1-42 was used as negative control, and […] was used as positive control.

[5] = system: APP/PS1 double transgenic mice; assay: Morris Water Maze place navigation test; assay type: in vivo; conditions: nasal 33 mg/ml at 5 μl/d, 30 days, n = 7
Experimental: (§1) 1.1 Animals: Fourteen APP/PS1 double transgenic mice were randomized into model group and drug administration group. Seven C57BL/6J mice with the same age and genetic background were used in normal control group. By way of nasal administration, 33 mg/ml HPYD in physiological saline solutions were administered to the mice in drug administration group in a rate of 5 μl/d using drug delivery devices, and the same volume of physiological saline solutions were administered nasally to the mice in normal control group and model group. The detection was performed 30 days after the administration.
(§2) 1.2 Morris Water Maze test: (1) Place Navigation: A platform is placed in a circle within the third quadrant of water maze. Each mouse swims twice (90 s/time) during the same time periods of every day for 5 days. The time required for a mouse's finding and climbing onto the platform, i.e. escape latency, is recorded. If the mouse could not find the platform within 90 s, it is guided to the platform and kept for 20 s. In this case, the escape latency is recorded as 90 s. (2) Spatial Probe: The platform is removed at day 6, and during the same time period, a water entry point is optionally selected for putting a mouse into water. Each mouse swims once (90 s/time). The swim track of the mouse within 90 s, the numbers of leaping over the hidden platform, the original swimming angle after water entry, and so on are recorded for testing the memory ability of the mouse.
1.3 Data processing: The data obtained is expressed in mean±standard deviation (χ±5). Statistical analysis was performed using statistical software SPSS16.0. One-way ANOVA and pairwise comparison were employed. P<0.05 represents that the difference is statistically significant.

[6] = system: APP/PS1 double transgenic mice; assay: Morris Water Maze spatial probe test; assay type: in vivo; conditions: 30 days, n = 7
Experimental: as §1
as §2, with “(2) Spatial Probe: The platform is removed at day 6, and during the same time period, a water entry point is optionally selected for putting a mouse into water. Each mouse swims once (90 s/time).” left out, “mouse. […]” for “mouse.”

[7] = system: APP; assay: Immunohistochemical staining of APP in brains of APP/PS1 double transgenic mice; assay type: in vivo; conditions: nasal 33 mg/ml at 5 μl/d, 30 days, n = 7, x ± S
Experimental: as §1, with “control group. These mice were all purchased from the Experimental Animal Research Center of Peking Union Medical College, Chinese Academy of Medical Sciences. By way” for “control group. By way”, “administration group at a rate” for “administration group in a rate”, “detection was carried out 30 days” for “detection was performed 30 days”
(§3) 1.2 Drugs and reagents: Anti-Aβ1-42 antibody was purchased from Chemicon Inc. Anti-APP antibody, ready-to-use SABC Immunohistochemistry Staining Kit, DBA Color Development Kit and 0.1% polylysine were purchased from Wuhan Boster Biological Technology, Ltd. Other reagents have analytical purity.
(§4) 1.3 Immunohistochemical Staining: After Morris Water Maze was carried out in order to determine the learning ability of the experimental mice, the mice were anaesthetized by celiac injection with 0.1 kg/L chloral hydrate at a dose of 4 ml/kg. Rapid intubation was carried out via left ventricle. […]

[8] = biological target: T2, Aβ; assay: Immunohistochemical staining of Aβ in brains of APP/PS1 double transgenic mice; assay type: in vivo; design: from tissue; host or cells: brain (cortex, hippocampus CA1) of APP/PS1 double transgenic mice; conditions: nasal 33 mg/ml at 5 μl/d, 30 days, n = 7, x ± S
Experimental: as §1, with “control group. These mice were all purchased from the Experimental Animal Research Center of Peking Union Medical College, Chinese Academy of Medical Sciences. By way” for “control group. By way”, “administration group at a rate” for “administration group in a rate”, “detection was carried out 30 days” for “detection was performed 30 days”
as §3, §4

Row | Sequence | Inhibitory rate (%) on Aβ1-42 aggregation [1] | transmittance in each wavenumber representing secondary structures, versus Aβ incubated alone for 72 h [2] | inhibitory rate on Aβ aggregation [3] | Aβ fibers observed by electron microscope [4] | daily mean escape latency ([5]; 1 d) | daily mean escape latency ([5]; 2 d) | daily mean escape latency ([5]; 3 d) | daily mean escape latency ([5]; 4 d) | daily mean escape latency ([5]; 5 d) | numbers of leaping over the hidden platform (numbers) ([6]; day 6, 90 s, nasal 33 mg/ml at 5 μl/d) | Orientation angles (degree) ([6]; day 6, nasal 33 mg/ml at 5 μl/d) | content of β-sheet (FT-IR, 1640-1620 cm^−1) [2] | APP ratio of positive cells (%), Cortex [7] | APP ratio of positive cells (%), Hippocampus CA1 area [7] | inhibition effect on Aβ aggregation by electron microscopy, compared with H102 ([4]; co-incubation with Aβ1-42 for 5 days) | Aβ ratio of positive cells (%), Cortex [8] | Aβ ratio of positive cells (%), Hippocampus CA1 area [8]
1 | HKQLPFFEED [H102, reference compound] | 14.168 ± 0.038 % | significantly higher transmittance | 27.84% | Aβ fibers were significantly decreased | – | – | – | – | – | – | – | – | – | – | – | – | –
2 | HKQLPFYEED [HPYD] | 27.013 ± 0.018 % | significantly higher transmittance | – | significantly decreased and thinner | 88.127 ± 4.137 s | 80.404 ± 15.646 s | 67.740 ± 24.389 s | 45.950 ± 19.211 s | 24.974 ± 9.685 s | 2.25 ± 1.258 numbers | 40.478 ± 26.533 degree | lowest | 14.25 ± 3.25 % | 12.75 ± 1.83 % | stronger inhibition effect on Aβ aggregation than H102 | 15.85 ± 2.77 % | 11.09 ± 2.47 %
